“Also recorded” adds a separate entry of the source. Blank lines part the entries; values can stand above or below the molecule they belong to.
Experiments:
[1] = target: T1, CHO-JAML-His and CHO JAML-6xMyc (Homo sapiens, UniProt Q86YT9); assay: FACS staining of stably transfected CHO-JAML cell lines; format: binding; conditions: FIG. 1A
T1 construct: 6xMyc (cell line CHO JAML-6xMyc); expressed in transfected cells
T1 sequence (Q86YT9 20-394): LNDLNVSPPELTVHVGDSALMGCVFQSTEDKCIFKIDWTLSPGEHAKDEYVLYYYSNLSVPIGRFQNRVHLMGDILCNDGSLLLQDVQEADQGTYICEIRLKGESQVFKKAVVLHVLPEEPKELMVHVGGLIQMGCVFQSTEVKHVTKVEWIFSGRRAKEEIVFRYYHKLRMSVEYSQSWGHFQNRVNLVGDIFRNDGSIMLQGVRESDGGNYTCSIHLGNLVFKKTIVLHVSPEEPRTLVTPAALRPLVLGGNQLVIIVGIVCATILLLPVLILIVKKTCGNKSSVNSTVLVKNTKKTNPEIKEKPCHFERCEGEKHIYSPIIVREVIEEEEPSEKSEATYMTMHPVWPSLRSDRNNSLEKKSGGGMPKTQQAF
Text: BALB/c mice were immunized with recombinant soluble fragment of JAML.D1D2 tagged with 10 His residues at the C-terminus (sJAML-His), generated in H293T cells and purified by Nickel chromatography. After the 4th boost, mice were given a final immunization and, 3 days later, spleen cells harvested and fused to the myeloma cell line P3U1. Hybridomas were selected in HAT medium and supernatants of clones were subjected to screening first to immobilized, soluble JAML and followed by staining of CHO-JAML stable transfectants. Three hybridomas were selected and antibodies were purified from ascites. FACS staining profiles of mAbs using two different, stably transfected CHO-JAML cell lines, CHO-JAML-His and CHO JAML-6xMyc, both membrane bound and tagged at the C-terminus with either 10-His or 6xMyc. Control antibody is 9E10 anti Myc.
These hybridomas were further tested for reactivity against tagged, full-length JAML expressed on the surface of cultured cells. CHO-JAML-6XMyc transfectants were aliquoted and pelleted into round bottom 96 well plates. 100 μl hybridoma supernatants were added for 1 hr at 4° C. Cells were washed and positive wells were identified by FACS analysis using Goat anti Mouse-AlexaFluor 488. Cells from positive wells were cloned by limiting dilution at one cell per well and expanded first in DMEM-10% FBS containing HAT then in medium containing HT (ATCC) and later DMEM, 10% FBS. The cloned cells of interest were sent to Harlan Laboratories (Indianapolis, Ind.) for production of ascites. Antibodies were purified from ascitic fluid using proteinA-Sepharose (GE Healthcare) followed by dialysis against PBS. Aliquots were frozen at −80° C. Ig subclass of each antibody was determined by using the IsoStrip Mouse Monoclonal Antibody Isotyping Kit (Roche Applied Science). […]
Cells suspensions of adherent cells were prepared by trypsinization with Trypsin-EDTA (Sigma). […] After final washes, cells were analyzed using FACS Calibur. […] All samples were stained for JAML (DW100 mAb) and CD11b/CD18 (CBRM 1/29), and only CD11b/CD18 positive cells (PMNs) were analyzed for JAML expression.

T84 monolayers = assay: Epithelial barrier recovery after calcium switch (TER, dextran flux); format: cell-based, human; conditions: for epithelial barrier recovery (TER) after calcium depletion: 30 μg/ml, 20 m/ml, up to 24 hours, FIG. 9A
Procedure: T84 monolayers grown on permeable supports were subjected to transient calcium depletion by preincubation in Ca2+ free buffer (PBS) for 40 min to disassemble tight junctions, followed by switching back to calcium containing medium without (No Tx), or with sJAML or a control recombinant IgSF protein sSIRPa (30 μg/ml). Barrier recovery was measured as transepithelial resistance (TER) at time points as indicated.
FIG. 9B. Flux of fluorescently labeled dextran (3 k) was measured at the 24 h time point for conditions as described in panel A. N=4.
Since CAR plays a role in epithelial barrier, the effect of soluble JAML on epithelial barrier recovery was tested. Transepithelial resistance (TER) recovery experiments and dextran flux assay were performed with T84 cells grown in transwells (FIG. 9) as well as with Caco2 cells. […] As a negative control, a related soluble IgSF molecule SIRPalpha had no effect.

[2] = target: T2, epithelial CAR on T84 monolayers (Homo sapiens, UniProt P78310); assay: Soluble JAML binding to epithelial CAR, immunofluorescence; format: cell-based; conditions: sJAML 20 μg/ml, 1 h at 37° C. after 20 min Ca2+ free buffer; FIG. 7D
T2 construct: endogenous in cells; host or cells: T84
T2 sequence (P78310 20-365): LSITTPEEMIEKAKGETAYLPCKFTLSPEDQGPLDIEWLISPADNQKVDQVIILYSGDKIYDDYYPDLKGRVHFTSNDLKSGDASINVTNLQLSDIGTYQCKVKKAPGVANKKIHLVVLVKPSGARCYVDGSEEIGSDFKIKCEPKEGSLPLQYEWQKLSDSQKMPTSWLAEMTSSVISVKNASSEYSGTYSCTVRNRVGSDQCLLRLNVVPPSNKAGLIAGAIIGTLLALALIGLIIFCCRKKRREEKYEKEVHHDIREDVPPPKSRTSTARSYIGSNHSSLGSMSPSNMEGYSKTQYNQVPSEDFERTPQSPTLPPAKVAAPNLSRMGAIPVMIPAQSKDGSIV
Procedure: FIG. 7D. T84 monolayers were subjected to transient calcium depletion by preincubation in Ca^2+ free buffer (PBS) for 20 min to increase access to tight junctions, were incubated with sJAML (20 μg/ml) for 1 h at 37° C. […] The scale bar is 20 μm.
As it has been established that epithelial CAR is the ligand for JAML on PMN. Whether shed JAML, as well as the recombinant protein could bind to CAR was investigated. To do this, CHO cells stably expressing CAR protein (CHO-CAR) were incubated with either supernatants from PMA activated differentiated PLB-985 (that release high levels of soluble JAML upon activation, (FIG. 2)), or recombinant soluble JAML and stained with DW216 to detect bound JAML. […] The same observation was verified by IF (FIG. 7B). […] The calcium depletion disrupts intercellular junctions of the epithelium and allows for better penetration of soluble JAML.

B1: DW100: monoclonal anti-human JAML antibody (IgG1,κ), hybridoma ATCC PTA-13051; VH SEQ ID NO:19, VL SEQ ID NO:22 (antibody, V domains shown)
VH: DVQLVESGAELVRPGASKLSCKALAYTFTDYEMHWVKQTPVHGLEWIGIIHPGSGGTVYNQKFKGKATLTADKSSSTAYMELSSLTSEDSTVYYCTRRRYYGSSYNWYFDVWGAGN
VL: VLTQSPASLAASVGETVTITCRASENIYYSLAWYQQKQGKSPQLLIYNANSLEDGVPSRFSGSGSGTQYSLKINSMQPEDTATYFCEQTYDVPLTFGAGTKLEL
FACS staining of CHO-JAML transfectant lines [1]: stained both transfectant lines equally well

JAML labeling versus CAR staining on T84 monolayers [2]: highly colocalizes with staining of CAR
B2: sJAML: recombinant soluble fragment of JAML.D1D2 tagged with 10 His residues at the C-terminus (protein)
chain: LNDLNVSPPELTVHVGDSALMGCVFQSTEDKCIFKIDWTLSPGEHAKDEYVLYYYSNLSVPIGRFQNRVHLMGDILCNDGSLLLQDVQEADQGTYICEIRLKGESQVFKKAVVLHVLPEEPKELMVHVGGLIQMGCVFQSTEVKHVTKVEWIFSGRRAKEEIVFRYYHKLRMSVEYSQSWGHFQNRVNLVGDIFRNDGSIMLQGVRESDGGNYTCSIHLGNLVFKKTIVLHVSPEEPRTL
epithelial barrier recovery (TER) after calcium depletion (T84 monolayers; listed as Soluble JAML): decreased epithelial barrier recovery; also recorded: delayed both epithelial barrier recovery and wound restitution
epithelial barrier recovery (TER) after calcium depletion (T84 monolayers; listed as soluble JAML): significantly impaired the recovery of epithelial barrier
flux of fluorescently labeled dextran (3 k) (T84 monolayers; 24 h time point, FIG. 9B): increased dextran flux
